For series [1], the target named is SpyCas9;AcrIIA2 (AcrIIA2a.1) (Streptococcus pyogenes;Listeria …, UniProt Q99ZW2;PDB:6MCB_3 1-1368;1-123, |). Description: cryo-EM.
The target in the next series is T1, AcrIIA2 (AcrIIA2a.1) (Listeria monocytogenes phage/prophage, UniProt PDB:6MCB_3 1-123).
T1 sequence: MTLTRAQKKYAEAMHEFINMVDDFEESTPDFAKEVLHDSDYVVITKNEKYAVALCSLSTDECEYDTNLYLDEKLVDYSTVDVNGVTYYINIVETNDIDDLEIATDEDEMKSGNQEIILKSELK
Nature of the series: size-exclusion chromatography.

In series [2] the target is SpyCas9;AcrIIA2b (AcrIIA2b.3) (Streptococcus pyogenes;Listeria phage?, UniProt Q99ZW2;PDB:6MCC_3 1-1368;1-130, |). Description: cryo-EM.

B1: sgRNA (structured_RNA)
RNA: GGCGCAUAAAGAUGAGACGCGUUUUAGAGCUAUGCUGUUUUGAAAAAAACAGCAUAGCAAGUUAAAAUAAGGCUAGUCCGUUAUCAACUUGAAAAAGUGGCACCGAGUCGGUGCUU
In the case of B1, the binding result in series [1] is “binds”; with AcrIIA2 (AcrIIA2a.1), “no binding”; in series [2], “binds”.
